Earlier results on 1 substance are cited in PMC4828448.

For the data set, the target named is nisin (Lactococcus lactis) (UniProt P13068).
Chain of UniProt P13068 (P13068 24-57): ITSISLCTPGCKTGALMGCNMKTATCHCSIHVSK

With NisI (from UniProt P42708), the Kd is 1000 nM.

In general, Kd refers to the equilibrium constant for the complex coming apart.
